T1: S-02 (S2) NK-TALEN (synthetic, UniProt Q56830 SEQ:41-735)
T1 chain: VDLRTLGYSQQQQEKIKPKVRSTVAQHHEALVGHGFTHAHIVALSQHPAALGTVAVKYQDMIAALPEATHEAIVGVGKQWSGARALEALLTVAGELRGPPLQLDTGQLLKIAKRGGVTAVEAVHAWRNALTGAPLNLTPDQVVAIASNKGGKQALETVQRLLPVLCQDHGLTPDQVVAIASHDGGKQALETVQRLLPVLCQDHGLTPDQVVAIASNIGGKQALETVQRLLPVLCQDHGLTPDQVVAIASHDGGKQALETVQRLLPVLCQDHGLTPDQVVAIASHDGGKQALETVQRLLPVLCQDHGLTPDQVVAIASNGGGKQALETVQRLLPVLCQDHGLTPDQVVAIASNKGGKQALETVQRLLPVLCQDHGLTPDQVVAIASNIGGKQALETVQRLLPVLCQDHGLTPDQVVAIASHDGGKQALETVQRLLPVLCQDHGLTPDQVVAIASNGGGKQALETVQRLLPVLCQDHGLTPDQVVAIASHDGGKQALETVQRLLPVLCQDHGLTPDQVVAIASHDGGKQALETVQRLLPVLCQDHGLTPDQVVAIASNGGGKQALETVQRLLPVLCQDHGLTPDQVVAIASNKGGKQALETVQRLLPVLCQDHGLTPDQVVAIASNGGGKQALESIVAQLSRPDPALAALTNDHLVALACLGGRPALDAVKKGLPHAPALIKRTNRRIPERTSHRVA

T2: S-07 (S7) NK-TALEN (synthetic, UniProt B2SU53 SEQ:41-1041)
T2 chain: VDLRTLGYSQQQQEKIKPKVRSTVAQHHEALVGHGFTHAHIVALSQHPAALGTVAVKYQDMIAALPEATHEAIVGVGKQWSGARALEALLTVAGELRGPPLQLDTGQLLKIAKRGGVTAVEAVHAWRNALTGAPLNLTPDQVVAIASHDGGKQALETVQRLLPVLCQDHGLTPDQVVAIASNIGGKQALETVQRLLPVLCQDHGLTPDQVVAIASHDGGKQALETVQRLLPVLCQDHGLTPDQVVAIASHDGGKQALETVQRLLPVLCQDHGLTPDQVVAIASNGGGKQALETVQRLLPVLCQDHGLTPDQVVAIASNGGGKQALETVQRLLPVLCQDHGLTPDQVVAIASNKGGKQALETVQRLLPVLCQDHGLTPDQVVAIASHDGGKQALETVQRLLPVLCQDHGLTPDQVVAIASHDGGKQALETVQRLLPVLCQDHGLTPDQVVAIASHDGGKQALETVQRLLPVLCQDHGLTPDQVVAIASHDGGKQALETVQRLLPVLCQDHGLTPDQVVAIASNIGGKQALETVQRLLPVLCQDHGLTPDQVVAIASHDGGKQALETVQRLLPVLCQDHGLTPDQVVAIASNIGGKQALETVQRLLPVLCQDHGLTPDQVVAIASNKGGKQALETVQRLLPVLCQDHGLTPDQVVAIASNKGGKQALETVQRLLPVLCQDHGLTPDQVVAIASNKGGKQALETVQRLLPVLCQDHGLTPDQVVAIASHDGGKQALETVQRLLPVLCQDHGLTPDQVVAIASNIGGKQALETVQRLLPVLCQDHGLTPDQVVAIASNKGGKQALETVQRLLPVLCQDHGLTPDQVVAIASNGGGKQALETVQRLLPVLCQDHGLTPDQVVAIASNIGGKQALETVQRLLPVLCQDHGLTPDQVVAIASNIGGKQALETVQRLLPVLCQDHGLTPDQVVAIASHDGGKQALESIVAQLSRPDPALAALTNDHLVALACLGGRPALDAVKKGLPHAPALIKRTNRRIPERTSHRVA

B1: S-02 half-site (dsDNA)
DNA 1: GCACCTGACTCCTGT
DNA 2: ACAGGAGTCAGGTGC
B2: S-07 half-site (dsDNA)
DNA 1: CACCTTGCCCCACAGGGCAGTAAC
DNA 2: GTTACTGCCCTGTGGGGCAAGGTG

Assays:
S-02 (S2) NK-TALEN = molecular target: T1, S-02 (S2) NK-TALEN; experiment: cell_activity; monomer SSA assay; details: tags: 3xFLAG, NLS, FokI
Description: (§1) HEK293T cells (ATCC) were cultured in Dulbecco's Modified Eagle Medium (Sigma) supplemented with 10% FBS and 2 mM L-Glutamine. Cells were seeded 80,000 per well of a 24-well plate. After 4 h, cells were transfected with 200 ng of the TALEN plasmid (or 100 ng of each TALEN for hetero-dimeric pairs) and 10 ng of the corresponding SSA reporter plasmid using calcium phosphate transfection. Three control transfections were included: 1) 200 ng of an empty TALEN backbone and 10 ng of an SSA reporter plasmid, 2) 200 ng of an empty TALEN backbone and 10 ng of a pEGFP plasmid, and 3) 100 ng of each GFP-ZFN and 10 ng of an SSA reporter plasmid. Cells were harvested 48 h after transfection. The percentages of pEGFP-transfected samples expressing GFP were determined using an Accuri C6 flow cytometer, as an indication of transfection efficiency. Genomic DNA was isolated using QuickExtract DNA extraction solution (Epicentre) as described20. Sample were PCR amplified for 35 cycles (95° C., 30 s; 60° C., 30 s; 72° C., 60 s) in a 50 μl reaction that contains 2 μl of the extracted DNA, 2.5 μl of each 10 μM target region amplification primer (SSA-Cell-F4, 5′-[…] (SEQ ID NO: 183); SSA-Cell-R4, 5′-[…] (SEQ ID NO: 184)), and 25 μl of GoTaq green master mix (Promega). PCR reactions were then separated on 2% agarose gels and the percentages of SSA-repaired products were quantified using ImageJ.

S-07 (S7) NK-TALEN = molecular target: T2, S-07 (S7) NK-TALEN; experiment: cell_activity; monomer SSA assay; details: tags: 3xFLAG, NLS, FokI
Description: as §1

Binder	activity (S-02 (S2) NK-TALEN)	activity (S-07 (S7) NK-TALEN)
B1	23 % SSA	–
B2	–	7.5 % SSA
